“And” between values parts separate entries of the source, which are not always exact repeats. Identical values can stand only once.
Target: the molecule itself
Assay: SEC; purified recombinant EtfABCX analysed by size exclusion chromatography; peaks assigned by mass; EtfABCX protomers to superdimer and super-tetramer

B1: Thermotoga maritima EtfABCX holoenzyme (heterotetrameric protomer) (complex)
chain 1: MNVVVCIKQVPDTTNVRIDRKTNNLVREGVPSIINPDDERALELASQLKEKFGATVYVITMGPPQAKEALKDAIAFGLDEAVHLSDRTFAGADTLATTYTLYWGIKKIEERIGKIDLILTGKQAVDGDTGQVGPGLATRFGYALGAYVVRIEEIDPEKKEMVIVRRLDQGFEKIRLKLPAVLTITDELNKPRYADLPNLIRAIRYEPIVWTHKDLGLDPKKCGFFGSPTRVVSTNIPPARKGGDIISKNEDPEVAAEKLIEALKKFEAVRLVEALKPVLEGEKDE
chain 2: MSEKKIIFVLIEHHGGKAHPVSWELIGKARDLASKLENSEVWGVLLGEGLESVAKEAIQRGADKVLYVKNREFNTYVNYLYKKALVDMVRKYRPEIFLIGATLEGRELAGMVATELETGLTADCTGLDIIPDKKLLAMTRPTFGGNLMATIMCPDHRPQMATVRPGVMKELPPDPERTGEIIEEEYDLGTFDKLIEILETIPLQTQVNLEYAPVVVAGGKGVGGPEGFKKLKELADLLGGEVGASRAAVKAGWISPEHQVGQTGKTVRPVLYFACGISGAIQHVVGIKESEIIVAINIDEKAPIFDIADIGIVGDLHKVVPALTAKLRELLNKSGVKK
chain 3: MKIEFDVVVVGAGPSGLSCAYVLAKNGLKVAVVEKGEYPGSKNVMGGVLYVHPLKEIMPDFLEKAANSKALERNVIEQNLWLLGNEGVIKIGHRNVEWKENPNAFTVLRANFDRWFAQEVEKAGALIIPKTKVEDFLRNEKGEIAGVVTSRPKGEIHSKAVVIAEGVNPILTMKAGLRKEDLKPHMVAVAVKEVISVPEDVVNRVFGVEGNDGATIELLGSWSEGMFGMGFLYANRSSVSLGCGVLLEDLRKKKIKPYQLLENLKNHPVISDMLGEYRNNTMEYLAHLIPEGGYYAMPKVYGDRVLVCGDAAMLVNSIHREGSNHAITSGRLAAETLLEAFEKGDFSEKILKNYYLRLKESFILKDLEKYKDLMPTMEKNHQFVEIYPDLANDALKRFLQVDGTPKWDVQKQIADMVLSRRSLIGISLDLLRFWRAVR
chain 4: MRIEDKLYLNRYRTDEENPHLKIKDESICAEKCSDRPCVSCCPADVYEWTESGMEVKFEGCLECGTCRIVCPFGNIEWNYPRGNYGVLYKFG
stoichiometry N: 2 and 4

From paper PMC10734219, “Characterization of the Membrane-Associated Electron-Bifurcating Flavoenzyme EtfABCX from the Hyperthermophilic Bacterium Thermotoga maritima” (Biochemistry, 2023)
